Where no end group is shown, it is not given here.
Biological target: T1, Rb-E2F binding (RbNP construct, E2FTMR peptide) (Homo sapiens, UniProt P06400, DEL245-267/DEL582-642)
T1 construct: lacks the internal loops in each domain (residues 53-787, Δ245-267, Δ582-642)
Experiment: Fluorescence polarization titration of RbNP into E2FTMR
Conditions: RbNP titrated into 10 nM E2FTMR
Description: The inventors have designed and successfully implemented a high-throughput fluorescence polarization assay to screen molecules for their modulation of Rb-E2F binding affinity. In the current exemplary format, a peptide corresponding to the E2F transactivation domain (E2F2 amino acids 409-428) was synthesized with a tetramethylrhodamine dye (TMR) at its N-terminus (E2FTMR). This peptide can then be mixed with various Rb constructs, which bind the peptide and change the polarization of the TMR fluorescence. For initial experiments, the investigators have used an Rb construct RbNP, which contains the Rb N-terminal domain and pocket domain but lacks the internal loops in each domain (residues 53-787, Δ245-267, Δ582-642).
The affinity of E2FTMR for unphosphorylated Rb is approximately 7-fold tighter than its affinity for phosphorylated RbNP. In the presence of 10 μM synthetic peptide that contains the ‘L×C×E’ sequence from the E7 oncoprotein, phosphorylated Rb binds E2F with 2-fold higher affinity. This peptide, which has a similar effect in calorimetry measurements of affinity, binds near the RbN-pocket interface, and the investigators predict it inhibits interdomain docking.

T1 sequence (P06400 with tags, fused parts or gaps DEL245-267/DEL582-642, one chain of several): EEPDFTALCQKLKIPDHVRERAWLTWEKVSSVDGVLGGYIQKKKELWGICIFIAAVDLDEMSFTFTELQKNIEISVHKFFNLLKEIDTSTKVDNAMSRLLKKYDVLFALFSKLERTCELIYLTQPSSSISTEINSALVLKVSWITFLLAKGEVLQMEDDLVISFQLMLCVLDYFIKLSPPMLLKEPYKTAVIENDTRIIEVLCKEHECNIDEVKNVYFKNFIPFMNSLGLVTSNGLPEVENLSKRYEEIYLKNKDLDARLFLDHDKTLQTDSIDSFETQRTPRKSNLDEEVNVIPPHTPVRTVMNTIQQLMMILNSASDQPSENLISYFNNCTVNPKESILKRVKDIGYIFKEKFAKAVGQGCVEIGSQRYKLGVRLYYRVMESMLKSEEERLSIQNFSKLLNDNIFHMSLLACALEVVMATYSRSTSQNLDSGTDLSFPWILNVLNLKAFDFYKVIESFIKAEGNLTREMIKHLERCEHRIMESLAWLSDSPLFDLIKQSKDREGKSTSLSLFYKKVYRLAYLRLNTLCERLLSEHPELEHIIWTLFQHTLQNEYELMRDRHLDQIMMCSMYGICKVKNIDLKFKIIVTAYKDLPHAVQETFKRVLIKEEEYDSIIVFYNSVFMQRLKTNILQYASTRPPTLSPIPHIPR

E2FTMR: peptide corresponding to the E2F transactivation domain (E2F2 amino acids 409-428) with a tetramethylrhodamine dye at its N-terminus (tetramethylrhodamine-QDDYLWGLEAGEGISDLFDS; UniProt Q14209 409-428, looked up, fragment)
Affinity of E2FTMR for unphosphorylated Rb relative to phosphorylated RbNP: approximately 7 fold
